# Source: the RNAGym collection of RNA variant scans (doi:10.7554/elife.80360)
# B1: HDV Ribozyme (parent)
# chain: GGCCGGCAUGGUCCCAGCCUCCUCGCUGGCGCCGGCUGGGCAACAUUCCGAGGGGACCGUCCCCUCGGUAAUGGCGAAUGGGACCCA
# Variants of: B1
# Test: self-cleavage, relative activity (ratio to wild type); higher = more cleavage; co-transcriptional
row,Variant,self-cleavage
1,U12G C33A,0
2,G35C C86G,0.0489
3,C63U A71U,1.02
4,C63G U69G,0.731
5,G1U U60C,0.0811
6,C7U A42C,0.18
7,C36U G59A,0.704
8,U20A G81C,0.0449
9,G5C C75A,0.0536
10,U27A C44U,0.482
11,G25U G82U,0.0252
12,C64U U79A,0.597
13,G1C C41G,0
14,C62U U69C,1.07
15,G55C G67A,1.08
16,C15A A77G,0.485
17,G5C C22A,0
18,C15G A16U,0.795
19,C30A U37C,0.199
20,U12A C30U,0.0739
21,U47G C58U,0.942
22,C30U C61G,0.369
23,U46G G82A,0.161
24,G74U G81U,0.156

row,Variant,self-cleavage
1,G29U C63U,0
2,G17U C85G,0.554
3,C18U G73U,0.111
4,C41A C62A,0.77
5,U20A G73C,0.0615
6,U46A G81U,0.271
7,C21A G25C,0
8,C41A C49U,0.91
9,G25A G31C,0.0739
10,U9G C36G,0.115
11,C58G A77U,0.388
12,U9A U23A,1.12
13,G28A G80C,0.0396
14,C33G G34A,0.0831
15,G10U C32A,0.1
16,C22G A51U,0.0339
17,C7G C44A,0
18,C19U A42G,0
19,U20A C24U,0.162
20,G5C G10C,0
21,C64A G80U,0.294
22,C15G A43U,0.123
23,G11A C86G,0.306
24,C36G G53C,0.158

row,Variant,self-cleavage
1,C3G C57A,0.802
2,U46A A78C,0.131
3,U60C A83C,0.443
4,G28C C84A,0.135
5,G29U G80C,0.0504
6,U65A G81C,0.502
7,G10U G11A,0.267
8,C3A C13A,0.0329
9,C7A A42C,0.19
10,C13G A87U,0.0911
11,U20C G67U,0.175
12,G53C U69C,1.01
13,C44G C63G,0.441
14,A16C A78G,0.361
15,G17U A87G,0.499
16,C22G C33U,0.0268
17,G67C U72C,0.147
18,C13U C36A,0.132
19,U79C C85A,0.389
20,C21A U23A,0.0369
21,G17A A56U,0.528
22,C3U U12C,0.107
23,C3A A51C,0.374
24,A43C G67C,0.243

row,Variant,self-cleavage
1,A51U G81C,0.407
2,C26G G52C,0.889
3,G34A G59C,0.225
4,C22G A77C,0.0426
5,C24A U60A,0.535
6,U12C G25A,0.17
7,A8C C75U,0.128
8,C19U C21A,0.0573
9,G28C G67A,0.0707
10,G5U A87G,0.636
11,G17U G53C,0.354
12,G1A G53A,0.0449
13,G54C C62A,0.967
14,C3A G17C,0.0329
15,G53U G80U,0.256
16,G6U C36A,0.133
17,U9G U37C,1.37
18,C13A G76C,0.386
19,G11A A45U,0.222
20,C30A C61G,0.583
21,G39U C58A,0.665
22,U27C G39C,0.166
23,A16G G73C,0.431
24,C21G G74A,0.0511

row,Variant,self-cleavage
1,G6C G38A,0.0396
2,C36G C64G,0.156
3,C4A G68U,0.453
4,G53U A78U,0.251
5,G40A G68U,0.997
6,U47G G50U,0.831
7,U46C U69G,1.08
8,C21U G67A,0.158
9,G31C C61U,0.262
10,G11U C18A,0.0674
11,G40A A71C,0.485
12,C36G G82U,0.142
13,C22U C86U,0.674
14,G5U U65C,0.723
15,G1U C7G,0.332
16,C18U G40A,0.691
17,U23C G39A,0.519
18,C22A C49U,0.338
19,U12A G31C,0
20,A70G C75U,0.136
21,U27G A42C,0.185
22,C18U C57G,0.831
23,U47C C64G,0.511
24,G17U C85A,0.538

row,Variant,self-cleavage
1,C14U C85G,0.712
2,G5U G29A,0.285
3,G2U A45U,0.0554
4,G40U G52C,0.891
5,U9C G74U,0.467
6,U46G G74U,0.529
7,C18U G38A,0.176
8,C64G C84A,0.718
9,C63A G68C,0.495
10,G31U U72C,0.163
11,C30A G40A,0.462
12,U46C G81U,0.302
13,G52U G81U,0.429
14,G2C G5A,0.0563
15,C15A G80U,0.899
16,G2C A71U,0.11
17,G5U G6C,0
18,C58G G76A,1
19,U12A C61A,0.443
20,U12G A71U,0.791
21,U9A U12C,0.289
22,U23A G39U,0.696
23,G2C C57G,0.0228
24,A56U G81U,0.381

row,Variant,self-cleavage
1,G59A G74C,0.198
2,C41G U46G,0.231
3,G17U C32G,0.0386
4,C14U U69C,1.4
5,U69G A77U,0.375
6,C22U C58U,0.684
7,G2U G50A,0.047
8,U9C G40U,0.449
9,C48U G53C,0.997
10,A51U U65G,1.3
11,C49U G53U,1.02
12,G29C U60A,0.0426
13,G11C C22G,0.0386
14,G55U C58A,0.843
15,G34C G68C,0.128
16,G54C A78C,0.191
17,C14U G34C,0.172
18,G2C G54C,0.0208
19,C3U C61A,0.801
20,U23C C85G,0.869
21,C44A A70C,0.465
22,G35U U65G,0.424
23,C3A U12A,0.0848
24,A42G A51G,0.571

row,Variant,self-cleavage
1,U37G G59C,0.192
2,G17A C41U,0.46
3,G38A A71G,0.177
4,C58A G59U,0.89
5,C30G C84G,0.0755
6,A43C G55A,0.511
7,G29A G53C,0.134
8,C18U C41A,0.597
9,U79C G82U,0.256
10,G54C C57U,0.997
11,C75G A77G,0.0755
12,C4A C19G,0.0339
13,G1C G76A,0.26
14,C62G G67U,0.423
15,G29A A42U,0.222
16,G76A A83U,0.875
17,G6U C21G,0.0361
18,C14G G73C,0.0504
19,C13A C84G,0.237
20,C58G C66A,1.15
21,G35U G82A,0.0841
22,C36U C75U,0.244
23,C22G A71U,0.0923
24,C4A G74C,0.0997

row,Variant,self-cleavage
1,C64G C66G,0.742
2,G38U A71G,0.166
3,A51C A70U,1.15
4,U20A A43C,0.0978
5,G5A C36G,0
6,C57U C58U,1.3
7,C13U C19U,0.0475
8,A51C G80C,0.0437
9,G28U C41A,0.138
10,G35C C75G,0.391
11,C22G A42U,0.0639
12,C13G C30G,0.0426
13,C18U U60A,0.852
14,C48A A56C,1.18
15,A43U U72C,0.155
16,U12G U72C,0
17,C18U G67U,0.665
18,G10C G40U,0.776
19,U20A C75A,0.0923
20,G40A A42U,0.802
21,C19U C49G,0.154
22,C18G C21A,0
23,C58U C63U,1.04
24,C33U C44A,0.499

row,Variant,self-cleavage
1,C41A C84A,0.435
2,C75G G82A,0.208
3,C13U U23G,0.287
4,U20G G80U,0.053
5,C13G C15G,0.122
6,G54C G55A,1.08
7,G10U U65A,0.665
8,G17U U37C,0.612
9,G53A C61G,0.751
10,G11U C15U,0.258
11,G25A C44G,0.0923
12,G34A G59U,0.266
13,U9A U60G,0.9
14,C48A A51G,0.903
15,G2U G10A,0
16,A42U U65G,0.457
17,G54C C64G,0.787
18,G28A G68U,0.0733
19,G10C G28U,0.148
20,A56U U65G,0.928
21,G1C C32G,0
22,C21A C22U,0.138
23,G10A C18G,0.0817
24,U60C U72C,0.539

row,Variant,self-cleavage
1,C64U A83G,1.02
2,C36A G76A,0.266
3,G38U G40C,0.0923
4,G25A U79A,0.0437
5,A8G G35A,0.332
6,C26A A77G,0.902
7,C24U G81U,0.169
8,A8C C63G,0.554
9,C19A A56U,0.122
10,G39C C58U,0.0923
11,G35U C64U,0.449
12,G2C G39C,0
13,U69C A78G,0.831
14,U12C G38U,0.0739
15,C18A C75A,0.0906
16,C58G U69A,0.911
17,U65A U79C,0.467
18,G6C A71C,0.0791
19,G50U G80C,0.111
20,C18U U69G,0.453
21,C33U C64G,0.736
22,A77G A87C,0.735
23,A83U C84A,0.813
24,C49A G76C,1.22

row,Variant,self-cleavage
1,G67C C86U,0.979
2,U12G U46C,1.02
3,G10C C13U,0.119
4,A8G G74U,0.111
5,C33G G52U,0.119
6,C3A G50A,0.545
7,G17A C32U,0.369
8,C48G C84A,0.932
9,C33A G67U,0.253
10,C24U C36U,0.402
11,A45U C84A,0.446
12,U46C G52A,1.03
13,C36G U47G,0
14,C21G A70G,0.185
15,G67A A70G,0.712
16,G11U U23A,0.437
17,C13G G55A,0.0875
18,C19U G25C,0.0489
19,G11A G67C,0.456
20,A16G C44U,0.615
21,G1U A56C,0.494
22,U37C G38A,0.0354
23,G55C C62U,0.946
24,C48G A78C,0.199

row,Variant,self-cleavage
1,C26U A77U,0.641
2,C26G C36A,0.151
3,U9G G11A,0.346
4,G1A C63U,0.147
5,G1C U69C,0.158
6,C32U C57G,0.975
7,G68A G82A,0.287
8,A16U G73C,0.437
9,G5C U47A,0.158
10,C33A C86U,0.244
11,C4A U65A,0.594
12,G50A A51G,1.03
13,G40A C57A,1.18
14,C32G C58U,0.0234
15,U69G C86G,0.692
16,C44U G76C,0.725
17,U12G C63G,0.727
18,C3A U12G,0.241
19,C61A U79C,0.506
20,G2C C61U,0.137
21,G6A U65C,0.554
22,C48G G81A,0.489
23,G68U C84U,0.511
24,C62A A77C,0.623

row,Variant,self-cleavage
1,U37A C62A,0.212
2,A78U G81C,0.213
3,G1C A51U,0.222
4,C57A G74U,0.356
5,C14G A45U,0.237
6,G17A C48G,0.46
7,U12G G25A,0.151
8,G34U G54A,0.041
9,C22A U47G,0.232
10,U9C C24A,0.864
11,G1C C30U,0.0755
12,G10A U60C,0.787
13,A8G U79G,0.332
14,G80U C85G,0.191
15,A8G C62A,1.03
16,A51C G67C,0.886
17,U65G G76U,0.966
18,G5U C32A,0.0875
19,U47A U79A,0.598
20,U9A C48G,1.31
21,A45C G74C,0.0594
22,C21G G53C,0.0978
